B1: NEK9 peptide 736-751 (Serine/threonine-protein kinase Nek9), 16-mer library wild type / NSP9 (ORF1ab Nsp9, residues 4141-4253) (parent)
chain 1: NSSGLSIGTVFQSSSP
chain 2: NNELSPVALRQMSCAAGTTQTACTDDNALAYYNTTKGGRFVLALLSDLQDLKWARFPKSDGTGTIYTELEPPCRFVTDTPKGPKVKYLYFIKGLNNLNRGMVLGSLAATVRLQ
B2: NYNRIN peptide 1032-1047 (Protein NYNRIN), 16-mer library wild type / NSP3 UBl1 (ORF1ab Nsp3a Ub1, residues 819-925) (parent)
chain 1: PSLSEEILRALSLHDP
chain 2: APTKVTFGDDTVIEVQGYKSVNITFELDERIDKVLNEKCSAYTVELGTEVNEFACVVADAVIKTLQPVSELLTPLGIDLDEWSMATYYLFDESGEFKLASHMYCSFY

Variants of: B1
Settings: with NSP9 (ORF1ab Nsp9, residues 4141-4253); bait immobilised on MaxiSorp plates (10 µg), library pre-cleared on GST, 2 h binding at 4 °C, five washes; one round per day, days 1-4; value from days 2 and 3; keep out of graded; scale: average fractional NGS count over selection days 2 and 3

Variant	screen value
chain 1 NSSGLSIGTVFQGSSP [chain 1 S13G]	1.34e-05
chain 1 NSSGLSIGTVFQASSP [chain 1 S13A]	0
chain 1 NSSGLSIGTVFQMSSP [chain 1 S13M]	0
chain 1 NSSGLSIGTVFQHSSP [chain 1 S13H]	8.96e-05
chain 1 NSSGLSIGTVFQDSSP [chain 1 S13D]	0.000121
chain 1 NSSGVSIGTVFQSSSP [chain 1 L5V]	4.92e-05
chain 1 NSSGQSIGTVFQSSSP [chain 1 L5Q]	0
chain 1 NSSGRSIGTVFQSSSP [chain 1 L5R]	0
chain 1 NSSGKSIGTVFQSSSP [chain 1 L5K]	0
chain 1 NSSILSIGTVFQSSSP [chain 1 G4I]	0
chain 1 NSSYLSIGTVFQSSSP [chain 1 G4Y]	0
chain 1 NSSWLSIGTVFQSSSP [chain 1 G4W]	0
chain 1 NSSGLSIGSVFQSSSP [chain 1 T9S]	0
chain 1 NSSGLSIGYVFQSSSP [chain 1 T9Y]	2.09e-05
chain 1 NSSGLSIGDVFQSSSP [chain 1 T9D]	0.00026
chain 1 NSSGLSIGPVFQSSSP [chain 1 T9P]	6.33e-05
chain 1 NSSGLSIGLVFQSSSP [chain 1 T9L]	0
chain 1 NSSGLSIGHVFQSSSP [chain 1 T9H]	1.62e-05
chain 1 NSSGLSIGEVFQSSSP [chain 1 T9E]	0.00124
chain 1 NSSGLSIGNVFQSSSP [chain 1 T9N]	0.000187
chain 1 NSSGLSIGGVFQSSSP [chain 1 T9G]	0
chain 1 NSVGLSIGTVFQSSSP [chain 1 S3V]	0
chain 1 NSWGLSIGTVFQSSSP [chain 1 S3W]	0.000185
chain 1 NSHGLSIGTVFQSSSP [chain 1 S3H]	3.04e-05
chain 1 NSQGLSIGTVFQSSSP [chain 1 S3Q]	0.000703
chain 1 NSKGLSIGTVFQSSSP [chain 1 S3K]	0

Variant	screen value
chain 1 NSMGLSIGTVFQSSSP [chain 1 S3M]	5.44e-05
chain 1 NSDGLSIGTVFQSSSP [chain 1 S3D]	0.000508
chain 1 NSEGLSIGTVFQSSSP [chain 1 S3E]	0.000394
chain 1 NSSGLSIGTVFQSFSP [chain 1 S14F]	0.000194
chain 1 NSSGLSIGTVFQSTSP [chain 1 S14T]	0
chain 1 NSSGLSIGTVFQSISP [chain 1 S14I]	0.0016
chain 1 NSSGLSIGTVFQSESP [chain 1 S14E]	0
chain 1 NSSGLSIGTVFQSNSP [chain 1 S14N]	3.83e-05
chain 1 NSSGLSIGTVFQSSAP [chain 1 S15A]	2.5e-05
chain 1 NSSGLSIGTVFQSSMP [chain 1 S15M]	0.000159
chain 1 NSSGLSIGTVFQSSIP [chain 1 S15I]	4.92e-05
chain 1 NSSGLSIGTVFQSSLP [chain 1 S15L]	2.69e-05
chain 1 NSSGLSIGTVFQSSKP [chain 1 S15K]	0
chain 1 NSSGLSIGTVFQSSGP [chain 1 S15G]	3.5e-05
chain 1 NSSGLSIGTVFQSSSV [chain 1 P16V]	0.000367
chain 1 NSSGLSIGTVFQSSSF [chain 1 P16F]	0
chain 1 NSSGLSIGTVFQSSSD [chain 1 P16D]	0.000477
chain 1 NSSGLSIGTVFQSSSM [chain 1 P16M]	0
chain 1 NSSGLSIGTVFQSSSL [chain 1 P16L]	3.5e-05
chain 1 NSSGLSIGTVFQSSST [chain 1 P16T]	2.95e-05
chain 1 NSSGLSIGTVFQSSSN [chain 1 P16N]	4.17e-05
chain 1 NSSGLSIGTVFQSSSQ [chain 1 P16Q]	0
chain 1 NSSGLSIYTVFQSSSP [chain 1 G8Y]	0
chain 1 NSSGLSITTVFQSSSP [chain 1 G8T]	0
chain 1 NSSGLSIDTVFQSSSP [chain 1 G8D]	0.000107
chain 1 NSSGLSIGTVFESSSP [chain 1 Q12E]	0.00594

Variant	screen value
chain 1 NSSGLSIGTVFISSSP [chain 1 Q12I]	0
chain 1 NSSGLSIGTVFSSSSP [chain 1 Q12S]	4.58e-05
chain 1 NSSGLSIGTVFNSSSP [chain 1 Q12N]	0.000424
chain 1 NSSGLSIGTVFVSSSP [chain 1 Q12V]	0
chain 1 NSSGLSIGTVFYSSSP [chain 1 Q12Y]	1.21e-05
chain 1 NSSGLSIGTVFMSSSP [chain 1 Q12M]	1.76e-05
chain 1 NSSGLSIGTVFDSSSP [chain 1 Q12D]	3.3e-05
chain 1 NSSGLSIGTVFPSSSP [chain 1 Q12P]	0
chain 1 NSSGLSIGTVFASSSP [chain 1 Q12A]	1.81e-05
chain 1 NSSGLSIGTVMQSSSP [chain 1 F11M]	0.000187
chain 1 NSSGLSIGTVEQSSSP [chain 1 F11E]	0.000183
chain 1 NSSGLSIGTVPQSSSP [chain 1 F11P]	0.0001
chain 1 NSSGLSIGTVRQSSSP [chain 1 F11R]	0
chain 1 NSSGLSIGTVGQSSSP [chain 1 F11G]	0.000245
chain 1 NSSGLSIGTVIQSSSP [chain 1 F11I]	0.000239
chain 1 NSSGLSIGTDFQSSSP [chain 1 V10D]	0.000207
chain 1 NSSGLSIGTTFQSSSP [chain 1 V10T]	0
chain 1 NSSGLSIGTFFQSSSP [chain 1 V10F]	0
chain 1 NSSGLSIGTSFQSSSP [chain 1 V10S]	5.93e-05
chain 1 NSSGLQIGTVFQSSSP [chain 1 S6Q]	0
chain 1 NSSGLLIGTVFQSSSP [chain 1 S6L]	9.77e-05
chain 1 NSSGLFIGTVFQSSSP [chain 1 S6F]	0
chain 1 NSSGLYIGTVFQSSSP [chain 1 S6Y]	0
chain 1 NSSGLWIGTVFQSSSP [chain 1 S6W]	0
chain 1 NSSGLAIGTVFQSSSP [chain 1 S6A]	0.000439
chain 1 NSSGLVIGTVFQSSSP [chain 1 S6V]	0

Variants of: B2
Settings: with NSP3 UBl1 (ORF1ab Nsp3a Ub1, residues 819-925); bait immobilised on MaxiSorp plates (10 µg), library pre-cleared on GST, 2 h binding at 4 °C, five washes; one round per day, days 1-4; value from days 2 and 3; keep out of graded; scale: average fractional NGS count over selection days 2 and 3

Variant	screen value
chain 1 PSLSEEILRMLSLHDP [chain 1 A10M]	0
chain 1 PSLSEEDLRALSLHDP [chain 1 I7D]	0
chain 1 PSLSEETLRALSLHDP [chain 1 I7T]	0
chain 1 PSLSEEILRAHSLHDP [chain 1 L11H]	0
chain 1 PSLSMEILRALSLHDP [chain 1 E5M]	0
chain 1 PSLSHEILRALSLHDP [chain 1 E5H]	0
chain 1 PSLSEEILRALSLHGP [chain 1 D15G]	0
chain 1 PSLSEEILRALSLHKP [chain 1 D15K]	0
chain 1 PSLSEEILRALSLHEP [chain 1 D15E]	0
chain 1 PSLSEQILRALSLHDP [chain 1 E6Q]	2.97e-05
chain 1 PSASEEILRALSLHDP [chain 1 L3A]	0
chain 1 PRLSEEILRALSLHDP [chain 1 S2R]	0
chain 1 PSLSEEILRALSLNDP [chain 1 H14N]	0
chain 1 PSLSEEILRALSLFDP [chain 1 H14F]	7.34e-06
chain 1 PSLSEEIHRALSLHDP [chain 1 L8H]	0
chain 1 PSLSEEILRALSPHDP [chain 1 L13P]	0

From publication PMC12102759
